Measured values reported in paper PMC7790537.

Assays:
[1] = biological target: recombinant trimeric HA of A/Victoria/210/2009 (H3N2) (influenza A virus A/Victoria/210/2009 (H3N2))
[2] = biological target: recombinant trimeric HA of A/New Caledonia/20/1999 (H1N1) (influenza A virus A/New Caledonia/20/1999 (H1N1)) (UniProt Q6WG00)

Fab-deficient (ΔFab) IgA1 monomer (domain or fragment)
HI activity, minimum HI concentration, Vic210 virus [1]: 794 µg/mL | NT activity, minimum virus-neutralizing concentration, Vic210 virus [1]: > 500 µg/mL | HI activity, minimum HI concentration, NC20 virus [2]: > 500 µg/mL

Fab-deficient (ΔFab) IgA2m2 monomer (domain or fragment)
HI activity, minimum HI concentration, Vic210 virus [1]: 500 µg/mL | NT activity, minimum virus-neutralizing concentration, Vic210 virus [1]: > 500 µg/mL | HI activity, minimum HI concentration, NC20 virus [2]: > 500 µg/mL
